Measured values from paper PMC9592557, “Structures of SAS-6 coiled coil hold implications for the polarity of the centriolar cartwheel” (Structure(London, England:1993), 2022).

How the values were obtained:
[1] = molecular target: DrSAS-6_CC_(Middle) (Danio rerio) (UniProt Q7ZVT3); experiment: SEC-MALS; step: monomers to the coiled-coil dimer; Superdex 75 or 200 10/300 GL, 10 mM K-PIPES pH 7.2
[2] = molecular target: HsSAS-6_CC_(Middle) (human) (UniProt Q6UVJ0); experiment: as above
[3] = molecular target: the molecule itself; experiment: cryo-EM cartwheel reconstitution (ring stacking) assay; purified protein dialysed overnight at 4°C into 10 mM K-PIPES pH 7.2 (no salt), vitrified, isolated cartwheels analysed
ITC = molecular target: the molecule itself; experiment: ITC
[4] = molecular target: CrSAS-6_CC_(Middle) (C. reinhardtii) (UniProt A9CQL4); experiment: ITC; dilution ITC, step: higher-order complex to coiled-coil dimers; 1.82 mM monomer in the syringe injected into buffer alone, 20°C, 10 mM K-PIPES pH 7.2, dissociation model
[5] = molecular target: CrSAS-6_CC_(Middle) (C. reinhardtii) (UniProt A9CQL4); experiment: SEC-MALS; step: monomers to the coiled-coil dimer; Superdex 75 or 200 10/300 GL, 10 mM K-PIPES pH 7.2

| Molecule | binding result [3] | further results |
| --- | --- | --- |
| DrSAS-6_CC_(Middle) (from UniProt Q7ZVT3 243-358) (domain or fragment) | – | stoichiometry N [1]: 2 |
| HsSAS-6_CC_(Middle) (from UniProt Q6UVJ0 211-312) (domain or fragment) | – | stoichiometry N [2]: 2 |
| CrSAS-6NL (domain or fragment, C. reinhardtii, UniProt A9CQL4 1-503, looked up, C. reinhardtii SAS-6, residues 1-503: head domain and full-length coiled-coil domain, without the disordered C-terminal tail; also called WT CrSAS-6NL; C. reinhardtii SAS-6 (1-503); source: E. coli BL21(DE3), purified (HiTrap Talon, 3C cleavage, SEC); not shown: His6, N-terminal, cleaved) MPLLLDDGDPKAQTGFDLSTATTLFWRPVPVHVKQQDREDVLEELTFRILTGVAKQNHNLRILRIHISSDSDLFFLHTLEVSEEDFQSLKNDQGILVDFASFPGKIISLLEKCILAQPGDSPRFQAVLTIRGGESVFKIVEINDFKQLPHITLAFRPGNDSVVKQFLAFRLSEVKGTCHDLSDDLSRTRDDRDSMVAQLAQCRQQLAQLREQYDKHLLEVQAQAKTQQASAHEERIREKSQLKDQFEKERGEMEGRYRDQIAALNTRLGELDTENRKLREVKYELDTKVSELSHKLGSSEGSNRSLEEETARLRSLNQQLSSSKHELEIQLNEAKAKVLALDEKAQSQGDVIEQQRGRLRDMEAALRQTEQRCADLRDTLASAEGRAKEAQAEVLKGNQAIEKLTNDLRLAKEKTKRKAAIILRQEEELQEREQSLANATRDVGVLGQQAESLRKDVASLHSENDSLRSKLEDSKQQLQSNEQMIRWLNQQVTEAQLHASGAT | binds | – |
| CrSAS-6LE (domain or fragment, C. reinhardtii, UniProt A9CQL4 1-503, looked up, C. reinhardtii SAS-6, residues 1-503, control mutant; also called C. reinhardtii SAS-6 (1-503; L306A/E326A); source: E. coli BL21(DE3), purified (HiTrap Talon, 3C cleavage, SEC); not shown: His6, N-terminal, cleaved) MPLLLDDGDPKAQTGFDLSTATTLFWRPVPVHVKQQDREDVLEELTFRILTGVAKQNHNLRILRIHISSDSDLFFLHTLEVSEEDFQSLKNDQGILVDFASFPGKIISLLEKCILAQPGDSPRFQAVLTIRGGESVFKIVEINDFKQLPHITLAFRPGNDSVVKQFLAFRLSEVKGTCHDLSDDLSRTRDDRDSMVAQLAQCRQQLAQLREQYDKHLLEVQAQAKTQQASAHEERIREKSQLKDQFEKERGEMEGRYRDQIAALNTRLGELDTENRKLREVKYELDTKVSELSHKLGSSEGSNRSAEEETARLRSLNQQLSSSKHALEIQLNEAKAKVLALDEKAQSQGDVIEQQRGRLRDMEAALRQTEQRCADLRDTLASAEGRAKEAQAEVLKGNQAIEKLTNDLRLAKEKTKRKAAIILRQEEELQEREQSLANATRDVGVLGQQAESLRKDVASLHSENDSLRSKLEDSKQQLQSNEQMIRWLNQQVTEAQLHASGAT | binds | – |
| CrSAS-6LQ (domain or fragment, C. reinhardtii, UniProt A9CQL4 1-503, looked up, C. reinhardtii SAS-6, residues 1-503, control mutant; also called C. reinhardtii SAS-6 (1-503; L320A/Q330A); source: E. coli BL21(DE3), purified (HiTrap Talon, 3C cleavage, SEC); not shown: His6, N-terminal, cleaved) MPLLLDDGDPKAQTGFDLSTATTLFWRPVPVHVKQQDREDVLEELTFRILTGVAKQNHNLRILRIHISSDSDLFFLHTLEVSEEDFQSLKNDQGILVDFASFPGKIISLLEKCILAQPGDSPRFQAVLTIRGGESVFKIVEINDFKQLPHITLAFRPGNDSVVKQFLAFRLSEVKGTCHDLSDDLSRTRDDRDSMVAQLAQCRQQLAQLREQYDKHLLEVQAQAKTQQASAHEERIREKSQLKDQFEKERGEMEGRYRDQIAALNTRLGELDTENRKLREVKYELDTKVSELSHKLGSSEGSNRSLEEETARLRSLNQQASSSKHELEIALNEAKAKVLALDEKAQSQGDVIEQQRGRLRDMEAALRQTEQRCADLRDTLASAEGRAKEAQAEVLKGNQAIEKLTNDLRLAKEKTKRKAAIILRQEEELQEREQSLANATRDVGVLGQQAESLRKDVASLHSENDSLRSKLEDSKQQLQSNEQMIRWLNQQVTEAQLHASGAT | binds | – |
| CrSAS-6VD (domain or fragment, C. reinhardtii, UniProt A9CQL4 1-503, looked up, C. reinhardtii SAS-6, residues 1-503, mutant aimed at the asymmetric coiled-coil complex; also called C. reinhardtii SAS-6 (1-503 V351E/D361N); source: E. coli BL21(DE3), purified (HiTrap Talon, 3C cleavage, SEC); not shown: His6, N-terminal, cleaved) MPLLLDDGDPKAQTGFDLSTATTLFWRPVPVHVKQQDREDVLEELTFRILTGVAKQNHNLRILRIHISSDSDLFFLHTLEVSEEDFQSLKNDQGILVDFASFPGKIISLLEKCILAQPGDSPRFQAVLTIRGGESVFKIVEINDFKQLPHITLAFRPGNDSVVKQFLAFRLSEVKGTCHDLSDDLSRTRDDRDSMVAQLAQCRQQLAQLREQYDKHLLEVQAQAKTQQASAHEERIREKSQLKDQFEKERGEMEGRYRDQIAALNTRLGELDTENRKLREVKYELDTKVSELSHKLGSSEGSNRSLEEETARLRSLNQQLSSSKHELEIQLNEAKAKVLALDEKAQSQGDEIEQQRGRLRNMEAALRQTEQRCADLRDTLASAEGRAKEAQAEVLKGNQAIEKLTNDLRLAKEKTKRKAAIILRQEEELQEREQSLANATRDVGVLGQQAESLRKDVASLHSENDSLRSKLEDSKQQLQSNEQMIRWLNQQVTEAQLHASGAT | binds | – |
| CrSAS-6LD (domain or fragment, C. reinhardtii, UniProt A9CQL4 1-503, looked up, C. reinhardtii SAS-6, residues 1-503, mutant aimed at the symmetric coiled-coil complex; also called C. reinhardtii SAS-6 (1-503; L339E/D378N); source: E. coli BL21(DE3), purified (HiTrap Talon, 3C cleavage, SEC); not shown: His6, N-terminal, cleaved) MPLLLDDGDPKAQTGFDLSTATTLFWRPVPVHVKQQDREDVLEELTFRILTGVAKQNHNLRILRIHISSDSDLFFLHTLEVSEEDFQSLKNDQGILVDFASFPGKIISLLEKCILAQPGDSPRFQAVLTIRGGESVFKIVEINDFKQLPHITLAFRPGNDSVVKQFLAFRLSEVKGTCHDLSDDLSRTRDDRDSMVAQLAQCRQQLAQLREQYDKHLLEVQAQAKTQQASAHEERIREKSQLKDQFEKERGEMEGRYRDQIAALNTRLGELDTENRKLREVKYELDTKVSELSHKLGSSEGSNRSLEEETARLRSLNQQLSSSKHELEIQLNEAKAKVEALDEKAQSQGDVIEQQRGRLRDMEAALRQTEQRCADLRNTLASAEGRAKEAQAEVLKGNQAIEKLTNDLRLAKEKTKRKAAIILRQEEELQEREQSLANATRDVGVLGQQAESLRKDVASLHSENDSLRSKLEDSKQQLQSNEQMIRWLNQQVTEAQLHASGAT | binds | – |
| CrSAS-6_CC_(Middle) (domain or fragment) KLREVKYELDTKVSELSHKLGSSEGSNRSLEEETARLRSLNQQLSSSKHELEIQLNEAKAKVLALDEKAQSQGDVIEQQRGRLRDMEAALRQTEQRCADLRDTLASAEGRAKEA | – | Kd (ITC): 2.3 mM; dH [4]: 1 kcal/mol; stoichiometry N [5]: 2 |
